Columns and labels:
[1] = target: T1, GFP‐tagged human NOP receptor in HEK cells (HEK_(hNOP‐GFP)) (human, UniProt P41146 1-370); assay: confocal microscopy of a fluorescent ligand on live cells; N/OFQ_(ATTO594) added cumulatively (1 pM-100 nM) to HEK_(hNOP) or HEK_(hNOP-GFP) cells on coverslips, 5 min at 4°C in Krebs buffer pH 7.4, washed, imaged with the 594 nm laser; corrected total cell fluorescence; saturation curve; details: one partner purified
T1 construct: nociceptin/orphanin FQ (N/OFQ) peptide receptor (NOP), human, GFP-tagged, recombinant in HEK cells; source: HEK cells expressing GFP-tagged NOP; live cells on coverslips (confocal, FRET) and radioligand displacement

[2] = target: T2, human N/OFQ peptide (NOP) receptor, recombinant in HEK cells (HEK_(hNOP)) (human, UniProt P41146 1-370); assay: as above; details: one partner purified
T2 construct: nociceptin/orphanin FQ (N/OFQ) peptide receptor (NOP), human, recombinant in HEK cells, no GFP; also called HEKNOP; source: HEK cells expressing the recombinant NOP receptor; live cells on coverslips (confocal) and radioligand displacement

[3] = target: T3, human N/OFQ peptide (NOP) receptor, recombinant in CHO cells (CHO_(hNOP)) (human, UniProt P41146 1-370); assay: radioligand binding; displacement of ~0.8 nM [3H]-N/OFQ from CHO_(hNOP) membranes (20-40 ug protein) by 1 pM-10 uM ligand; 50 mM Tris-HCl pH 7.4 with 0.5% BSA, room temperature, 1 h, vacuum filtration; non-specific binding with 1 uM N/OFQ; details: one partner purified
T3 construct: nociceptin/orphanin FQ (N/OFQ) peptide receptor (NOP), human, recombinant in CHO cells; used as cell membranes; source: CHO cells, stably transfected, cell membranes

[4] = target: T1, GFP‐tagged human NOP receptor in HEK …; assay: radioligand binding; displacement of [3H]-N/OFQ in HEK_(hNOP) and HEK_(hNOP-GFP) cells, room temperature; details: one partner purified
[5] = target: T2, human N/OFQ peptide (NOP) receptor, …; assay: as above; details: one partner purified
[6] = target: T1, GFP‐tagged human NOP receptor in HEK …; assay: cell-based or functional assay

T1 sequence (P41146 whole entry): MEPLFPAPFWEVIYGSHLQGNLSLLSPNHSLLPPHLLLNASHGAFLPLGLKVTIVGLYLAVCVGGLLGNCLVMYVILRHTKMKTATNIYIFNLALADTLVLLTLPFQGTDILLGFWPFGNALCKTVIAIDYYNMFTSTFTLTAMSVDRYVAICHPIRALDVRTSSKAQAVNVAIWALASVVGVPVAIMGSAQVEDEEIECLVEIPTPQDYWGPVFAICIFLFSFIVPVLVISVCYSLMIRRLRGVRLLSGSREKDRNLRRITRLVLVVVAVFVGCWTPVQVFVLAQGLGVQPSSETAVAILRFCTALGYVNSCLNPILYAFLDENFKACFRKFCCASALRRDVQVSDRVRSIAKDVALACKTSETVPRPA
T2 sequence (P41146 whole entry): as above
T3 sequence (P41146 whole entry): as above

B1: [Cys(ATTO 594)^18]N/OFQ‐NH2 (peptide)
chain: FGGFTGARKSARKLANQC
modifications: ATTO 594 on Cys18; C-terminal amide (NH2)
In the case of B1, the pKd [1] is reported as 8.53, the pKd [2] is reported as 9.51 and the pKi [3] is reported as 9.21. For the same binder, the pKi [4] was 8.98, the pKi [5] was 9.14 and the “pEC50, inhibition of forskolin-stimulated cAMP formation in HEK_(hNOP-GFP) cells, 0.1 pM-1 μM, 37°C, 15 min” value [6] was 9.73.

Source: PMC6255954 (British Journal of Pharmacology, 2018)
